Reference: paper PMC3355305, “Localized Dimerization and Nucleoid Binding Drive Gradient Formation by the Bacterial Cell Division Inhibitor MipZ” (Molecular Cell, 2012)

Test system: C. crescentus cells
Test: FRAP analysis of MipZ-YFP mobility
Type: cell-based, Caulobacter crescentus
Description: Due to their association with chromosomal DNA, MipZ dimers should display slower diffusion rates than monomers. To test this hypothesis, we monitored the mobility of wild-type and mutant MipZ-YFP fusions using fluorescence recovery after photobleaching (FRAP) analysis. […] Concurrent with the reappearance of fluorescence at the bleached pole, the intensity of the unbleached focus decreased, while the total integrated fluorescence remained constant within the cell.
Figure 5 FRAP Analysis of MipZ Diffusion (A and C) FRAP experiments on cells producing a wild-type MipZ-YFP fusion (A) or a MipZ-D42A fusion (C). Cells of strain MT177 (WT) or MT197 (D42A) were shifted from M2GN to M2G medium containing 0.3% xylose and cultivated for another 4 hr to deplete wild-type MipZ and synthesize the indicated fusion protein instead. Single polar MipZ-YFP foci were photo-bleached (white circles), and recovery was followed by fluorescence microscopy (scale bars represent 2 μm). (B, D, and E) Quantification of the recovery rate in cells producing YFP fusions to wild-type MipZ (MT177) (B), MipZ-D42A (MT197) (D), and MipZ-G14V (MT178) (E). FRAP experiments were performed as described in (A). The graphs show the average relative integrated intensities of the bleached region, an unbleached region of equal size at the opposite pole, and the remaining area of the cell plotted as a function of time. The recovery half-times (t1/2), as determined by fitting of the data to single-exponential functions (red lines), are given on top of the graphs. […] (F) Quantification of the recovery rate of MipZ-YFP in cells depleted of ParB. Strain MT148 was grown in M2G medium for 15 hr and analyzed as described in (B), (D), and (E). […] The recovery half-time measured before depletion of ParB was 11.8 s (±1.2 s; n = 34) (data not shown). See also Figure S6. […] It is uncertain whether they count as substance results. / All panels: the lowered sign after t is very small and is read as ½.
Figure S6. Fluorescence-recovery-after-photobleaching analysis of MipZ mobility, Related to Figure 5.
(A) Representative images of FRAP experiments on cells producing mutant MipZ-YFP fusions. Cells of strains DK2 (K13A), MT178 (G14V) and MT179 (K18Q), which express wild-type mipZ under the control of the ammonium-repressible PnrtX promoter and the indicated mipZ-eyfp allele under the control of the xylose-inducible Pxyl promoter, were shifted from M2GN to M2G medium containing 0.3% xylose and cultivated for another 4 h to deplete wild-type MipZ and synthesize the fusion protein instead. Single polar regions were photo-bleached, and recovery was followed by fluorescence microscopy (bars: 2 µm). The bleached regions are highlighted by circles.
(B) Cells of strain MT177 (ΔmipZ PnrtX::mipZ Pxyl::mipZ-eyfp) were grown as described in (A). Chloramphenicol (20 µg/ml) was added to the growing culture 25 min prior to harvest as well as to the agarose pads used for the FRAP experiments. Fitting of the data to a single exponential equation yielded a recovery half-time of 12.4 s (± 0.5 s).
(C) Cells of strain MT97 (mipZ-eyfp) were grown in M2G medium and subjected to FRAP analysis. The fitted curve corresponds to a recovery half-time of 12.0 s (± 1.2 s).
(D and E) Cells of strains (D) DK2 (ΔmipZ PnrtX::mipZ Pxyl::mipZK13A-eyfp) and (E) MT179 (ΔmipZ PnrtX::mipZ Pxyl::mipZK18Q-eyfp) were grown as described in (A) and subjected to FRAP analysis. […]

B1: MipZ: P loop ATPase and cell division inhibitor of Caulobacter crescentus; hexahistidine-tagged in vitro, YFP fusion in FRAP (protein)
chain: MAETRVIVVGNEKGGAGKSTIAVHLVTALLYGGAKVAVIDLDLRQRTSARFFENRRAWLDNKKIELPEPLALNLSDNDVALAERPEEEQVAGFEAAFARAMAECDFILIDTPGGDSAITRMAHGRADLVVTPMNDSFVDFDMLGTVDPVTLELTKPSLYSLTVWEGRKQRALSGQRQAMDWVVLRNRLATTEARNRKRLEDRLNALAKRVGFRIGPGLRDRVIYRELFPFGLTIADLSPQVRPVPVSLQHLAARQELRALMHSLGLSAYSGETMLAAQ
modifications: left off: His6, end not stated, state not stated
notes: hexahistidine-tagged in vitro, YFP fusion in FRAP
- recovery half-time (t1/2) (MipZ-YFP in cells depleted of ParB (strain MT148)): 3.2 s
- recovery half-time (t1/2) (YFP fusion, xylose-induced, cells depleted of wild-type MipZ, polar region bleached): 10.7 s
- recovery half-time (strain MT97 (mipZ-eyfp), M2G medium, not inducible promoter): 12.0 s
- recovery half-time (strain MT148 before depletion of ParB): 11.8 s
- recovery half-time (strain MT177, chloramphenicol 20 µg/ml): 12.4 s
